According to patent US20250388669A1 (published 2025):

Columns and labels:
[1] = molecular target: T1, B7H3 (human, UniProt Q5ZPR3 29-466, limits assumed); test: ELISA or FCM (Example 2)
T1 sequence (looked up): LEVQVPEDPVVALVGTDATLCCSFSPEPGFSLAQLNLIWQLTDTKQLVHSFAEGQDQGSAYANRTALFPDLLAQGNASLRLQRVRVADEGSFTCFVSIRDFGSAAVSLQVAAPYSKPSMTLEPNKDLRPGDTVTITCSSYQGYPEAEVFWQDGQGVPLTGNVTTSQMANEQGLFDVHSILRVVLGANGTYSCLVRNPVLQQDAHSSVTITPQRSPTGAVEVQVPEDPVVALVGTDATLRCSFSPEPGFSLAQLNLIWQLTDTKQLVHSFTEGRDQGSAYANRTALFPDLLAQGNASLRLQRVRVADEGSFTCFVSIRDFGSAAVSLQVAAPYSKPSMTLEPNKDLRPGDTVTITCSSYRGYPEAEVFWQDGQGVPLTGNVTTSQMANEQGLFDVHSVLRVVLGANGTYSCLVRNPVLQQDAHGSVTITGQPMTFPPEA

[2] = molecular target: T2, B7H3 (human, UniProt Q5ZPR3 29-466, limits assumed); test: FCM or ELISA
T2 construct: Tumor associated antigen; also called huB7H3
T2 sequence (looked up): T1 sequence (looked up)

B1: Ly2384 (other)
chain 1: QVQLVQSGAEVKKPGASVKVSCKASGYTFTSYVMHWVRQKPGQGLEWIGYINPYNEGTESTDKFKGRATMTSDKSTSTVYMELSSLRSEDTAVYYCASIYYGYEGTYFGVWGQGTLVTVSSASTKGPSVFPLAPSSKSTSGGTAALGCLVKDYFPEPVTVSWNSGALTSGVHTFPAVLQSSGLYSLSSVVTVPSSSLGTQTYICNVNHKPSNTKVDKKVEPKSCGGGSEVQLVESGGGLVQPGGSLRLSCAASGFTFSTYAMNWVRQAPGKGLEWVGRIRSKYNNYATYYADSVKGRFTISRDDSKNSLYLQMNSLKTEDTAVYYCVRHGNFGNSYVSWFAYWGQGTLVTVSSGGGGSDKTHTCPPCPAPEAAGPSVFLFPPKPKDTLMISRTPEVTCVVVDVSHEDPEVKFNWYVDGVEVHNAKTKPREEQYNSTYRVVSVLTVLHQDWLNGKEYKCKVSNKALPAPIEKTISKAKGQPREPQVYTLPPSREEMTKNQVSLWCLVKGFYPSDIAVEWESNGQPENNYKTTPPVLDSDGSFFLYSKLTVDKSRWQQGNVFSCSVMHEALHNHYTQKSLSLSPGGGGGSGGGGSGGGGSGGGGSQVQLVQSGAEVKKPGASVKVSCKASGYTFAGFEMHWVRQAPGQGLEWMGAIDPKTGGTDYNQKFKDRVTMTRDTSISTAYMELSRLRSDDTAVYYCARDLGYFDVWGQGTLVTVSS
chain 2: QVQLVQSGAEVKKPGASVKVSCKASGYTFTSYVMHWVRQKPGQGLEWIGYINPYNEGTESTDKFKGRATMTSDKSTSTVYMELSSLRSEDTAVYYCASIYYGYEGTYFGVWGQGTLVTVSSASTKGPSVFPLAPSSKSTSGGTAALGCLVKDYFPEPVTVSWNSGALTSGVHTFPAVLQSSGLYSLSSVVTVPSSSLGTQTYICNVNHKPSNTKVDKKVEPKSCGGGSQAVVTQEPSLTVSPGGTVTLTCRSSTGAVTTSNYANWVQQKPGQAPRGLIGGTNKRAPWTPARFSGSLLGGKAALTITGAQAEDEADYYCALWYSNLWVFGGGTKLTVLGGGGSDKTHTCPPCPAPEAAGPSVFLFPPKPKDTLMISRTPEVTCVVVDVSHEDPEVKFNWYVDGVEVHNAKTKPREEQYNSTYRVVSVLTVLHQDWLNGKEYKCKVSNKALPAPIEKTISKAKGQPREPQVYTLPPSREEMTKNQVSLSCAVKGFYPSDIAVEWESNGQPENNYKTTPPVLDSDGSFFLVSKLTVDKSRWQQGNVFSCSVMHEALHNRFTQKSLSLSPGGGGGSGGGGSGGGGSGGGGSDIQMTQSPSSLSASVGDRVTITCRASQDIRSNLNWYQQKPGGAVKLLIYYTSRLHSGVPSRFSGSGSGTDYTLTISSLQPEDFATYFCQQSEKLPRTFGGGTKVEIR
light: EIVLTQSPATLSLSPGERATLSCRASSSVSYMHWYQQKPGQAPRPWIYATSNLASGIPARFSGSRSGTDYTLTISSLEPEDFAVYYCQQWSSNTLTFGGGTKVEIKRTVAAPSVFIFPPSDEQLKSGTASVVCLLNNFYPREAKVQWKVDNALQSGNSQESVTEQDSKDSTYSLSSTLTLSKADYEKHKVYACEVTHQGLSSPVTKSFNRGEC
notes: Tri-specific antibody: B7H3 Fabs, central CD3 Fv, terminal CD137 Fv; Flexible linker is G3S
binding result [1]: binds

B2: Ly2424 (bispecific antibody, human IgG1, kappa)
chain 1: not shown
chain 2: QVQLVQSGAEVKKPGASVKVSCKASGYTFTSYVMHWVRQKPGQGLEWIGYINPYNEGTESTDKFKGRATMTSDKSTSTVYMELSSLRSEDTAVYYCASIYYGYEGTYFGVWGQGTLVTVSSASTKGPSVFPLAPSSKSTSGGTAALGCLVKDYFPEPVTVSWNSGALTSGVHTFPAVLQSSGLYSLSSVVTVPSSSLGTQTYICNVNHKPSNTKVDKKVEPKSCDKTHTCPPCPAPEAAGPSVFLFPPKPKDTLMISRTPEVTCVVVDVSHEDPEVKFNWYVDGVEVHNAKTKPREEQYNSTYRVVSVLTVLHQDWLNGKEYKCKVSNKALPAPIEKTISKAKGQPREPQVYTLPPSREEMTKNQVSLSCAVKGFYPSDIAVEWESNGQPENNYKTTPPVLDSDGSFFLVSKLTVDKSRWQQGNVFSCSVMHEALHNRFTQKSLSLSPGGGGGSGGGGSGGGGSGGGGSDIQMTQSPSSVSASVGDRVTITCRASQGIYSWLAWYQQKPGKAPNLLIYTASTLQSGVPSRFSGSGSGTDFTLTISSLQPEDFATYYCQQANIFPLTFGGGTKVEIK
light: B1 light
notes: B7H3/CD40: two B7H3 Fabs, terminal CD40 Fv (TM383)
binding result [2]: binds

B3: Ly2385 (other)
chain 1: QVQLVQSGAEVKKPGASVKVSCKASGYTFTSYVMHWVRQKPGQGLEWIGYINPYNEGTESTDKFKGRATMTSDKSTSTVYMELSSLRSEDTAVYYCASIYYGYEGTYFGVWGQGTLVTVSSASTKGPSVFPLAPSSKSTSGGTAALGCLVKDYFPEPVTVSWNSGALTSGVHTFPAVLQSSGLYSLSSVVTVPSSSLGTQTYICNVNHKPSNTKVDKKVEPKSCGGSEVQLVESGGGLVQPGGSLRLSCAASGFTFSTYAMNWVRQAPGKGLEWVGRIRSKYNNYATYYADSVKGRFTISRDDSKNSLYLQMNSLKTEDTAVYYCVRHGNFGNSYVSWFAYWGQGTLVTVSSGGGGSDKTHTCPPCPAPEAAGPSVFLFPPKPKDTLMISRTPEVTCVVVDVSHEDPEVKFNWYVDGVEVHNAKTKPREEQYNSTYRVVSVLTVLHQDWLNGKEYKCKVSNKALPAPIEKTISKAKGQPREPQVYTLPPSREEMTKNQVSLWCLVKGFYPSDIAVEWESNGQPENNYKTTPPVLDSDGSFFLYSKLTVDKSRWQQGNVFSCSVMHEALHNHYTQKSLSLSPGGGGGSGGGGSGGGGSGGGGSQVQLVQSGAEVKKPGASVKVSCKASGYTFAGFEMHWVRQAPGQGLEWMGAIDPKTGGTDYNQKFKDRVTMTRDTSISTAYMELSRLRSDDTAVYYCARDLGYFDVWGQGTLVTVSS
chain 2: QVQLVQSGAEVKKPGASVKVSCKASGYTFTSYVMHWVRQKPGQGLEWIGYINPYNEGTESTDKFKGRATMTSDKSTSTVYMELSSLRSEDTAVYYCASIYYGYEGTYFGVWGQGTLVTVSSASTKGPSVFPLAPSSKSTSGGTAALGCLVKDYFPEPVTVSWNSGALTSGVHTFPAVLQSSGLYSLSSVVTVPSSSLGTQTYICNVNHKPSNTKVDKKVEPKSCGGSQAVVTQEPSLTVSPGGTVTLTCRSSTGAVTTSNYANWVQQKPGQAPRGLIGGTNKRAPWTPARFSGSLLGGKAALTITGAQAEDEADYYCALWYSNLWVFGGGTKLTVLGGGGSDKTHTCPPCPAPEAAGPSVFLFPPKPKDTLMISRTPEVTCVVVDVSHEDPEVKFNWYVDGVEVHNAKTKPREEQYNSTYRVVSVLTVLHQDWLNGKEYKCKVSNKALPAPIEKTISKAKGQPREPQVYTLPPSREEMTKNQVSLSCAVKGFYPSDIAVEWESNGQPENNYKTTPPVLDSDGSFFLVSKLTVDKSRWQQGNVFSCSVMHEALHNRFTQKSLSLSPGGGGGSGGGGSGGGGSGGGGSDIQMTQSPSSLSASVGDRVTITCRASQDIRSNLNWYQQKPGGAVKLLIYYTSRLHSGVPSRFSGSGSGTDYTLTISSLQPEDFATYFCQQSEKLPRTFGGGTKVEIR
light: B1 light
notes: Tri-specific antibody: B7H3 Fabs, central CD3 Fv, terminal CD137 Fv; Flexible linker is G2S
binding result [1]: binds

B4: Ly2279 (bispecific antibody)
chain 1: not shown
chain 2: QVQLVQSGAEVKKPGASVKVSCKASGYTFTSYVMHWVRQKPGQGLEWIGYINPYNEGTESTDKFKGRATMTSDKSTSTVYMELSSLRSEDTAVYYCASIYYGYEGTYFGVWGQGTLVTVSSASTKGPSVFPLAPSSKSTSGGTAALGCLVKDYFPEPVTVSWNSGALTSGVHTFPAVLQSSGLYSLSSVVTVPSSSLGTQTYICNVNHKPSNTKVDKKVEPKSCGGGGSGGGGSGGGGSGGGGSDIQMTQSPSSVSASVGDRVTITCRASQGIYSWLAWYQQKPGKAPNLLIYTASTLQSGVPSRFSGSGSGTDFTLTISSLQPEDFATYYCQQANIFPLTFGGGTKVEIKGGGGSDKTHTCPPCPAPEAAGPSVFLFPPKPKDTLMISRTPEVTCVVVDVSHEDPEVKFNWYVDGVEVHNAKTKPREEQYNSTYRVVSVLTVLHQDWLNGKEYKCKVSNKALPAPIEKTISKAKGQPREPQVYTLPPSREEMTKNQVSLSCAVKGFYPSDIAVEWESNGQPENNYKTTPPVLDSDGSFFLVSKLTVDKSRWQQGNVFSCSVMHEALHNRFTQKSLSLSPG
light: B1 light
notes: B7H3/CD40: two B7H3 Fabs, central CD40 Fv (TM383)
binding result [2]: binds

B5: Ly1965 (bispecific antibody)
chain 1: QVQLVQSGAEVKKPGASVKVSCKASGYTFTSYVMHWVRQKPGQGLEWIGYINPYNEGTESTDKFKGRATMTSDKSTSTVYMELSSLRSEDTAVYYCASIYYGYEGTYFGVWGQGTLVTVSSASTKGPSVFPLAPSSKSTSGGTAALGCLVKDYFPEPVTVSWNSGALTSGVHTFPAVLQSSGLYSLSSVVTVPSSSLGTQTYICNVNHKPSNTKVDKKVEPKSCGGGGSGGGGSGGGGSGGGGSEVQLVESGGGLVQPGGSLRLSCAASGFTFSTYAMNWVRQAPGKGLEWVGRIRSKYNNYATYYADSVKGRFTISRDDSKNSLYLQMNSLKTEDTAVYYCVRHGNFGNSYVSWFAYWGQGTLVTVSSGGGGSDKTHTCPPCPAPEAAGPSVFLFPPKPKDTLMISRTPEVTCVVVDVSHEDPEVKFNWYVDGVEVHNAKTKPREEQYNSTYRVVSVLTVLHQDWLNGKEYKCKVSNKALPAPIEKTISKAKGQPREPQVYTLPPSREEMTKNQVSLWCLVKGFYPSDIAVEWESNGQPENNYKTTPPVLDSDGSFFLYSKLTVDKSRWQQGNVFSCSVMHEALHNHYTQKSLSLSPG
chain 2: QVQLVQSGAEVKKPGASVKVSCKASGYTFTSYVMHWVRQKPGQGLEWIGYINPYNEGTESTDKFKGRATMTSDKSTSTVYMELSSLRSEDTAVYYCASIYYGYEGTYFGVWGQGTLVTVSSASTKGPSVFPLAPSSKSTSGGTAALGCLVKDYFPEPVTVSWNSGALTSGVHTFPAVLQSSGLYSLSSVVTVPSSSLGTQTYICNVNHKPSNTKVDKKVEPKSCGGGGSGGGGSGGGGSGGGGSQAVVTQEPSLTVSPGGTVTLTCRSSTGAVTTSNYANWVQQKPGQAPRGLIGGTNKRAPWTPARFSGSLLGGKAALTITGAQAEDEADYYCALWYSNLWVFGGGTKLTVLGGGGSDKTHTCPPCPAPEAAGPSVFLFPPKPKDTLMISRTPEVTCVVVDVSHEDPEVKFNWYVDGVEVHNAKTKPREEQYNSTYRVVSVLTVLHQDWLNGKEYKCKVSNKALPAPIEKTISKAKGQPREPQVYTLPPSREEMTKNQVSLSCAVKGFYPSDIAVEWESNGQPENNYKTTPPVLDSDGSFFLVSKLTVDKSRWQQGNVFSCSVMHEALHNRFTQKSLSLSPG
light: B1 light
notes: B7H3/CD3: two B7H3 Fabs, central CD3 Fv
binding result [2]: binds
